Data on eight molecules can be found in US20030059763A1, “Immunoglobulin class switch recombination” (priority 2001, published 2003).

Experiment [1] relates to Ramos 2G6 cells stably transfected with XF-1. The experiment can be described thus: Substrate switch recombination (SSR), GFP positive cells by FACS, construct XF-1. In kind it is cell-based, human. To be noted: XF-1 cells; cytokines alone or in combination with CD40 mAb. An excerpt: (§1) The backbone of our switch substrate contained 1.6 Kb of the human Sμ (Zhang and Cheah, 2000, supra) and 1.8 Kb of the human Sγ2 regions (Mills et al, 1995, supra) under the transcriptional control of the CMV (pCMV) and the SV40 promoters (pSV40) respectively. A RSV LTR enhancer/promoter (pRC/RSV-LTR) and a GFP gene under the control of an internal ribosome entry site (IRES) were interposed between Sμ and Sγ2 in the reverse transcriptional orientation (FIG. 1A). Thus, the GFP gene will not be expressed within the gennline configuration of the construct. Detection of switch recombination between the Sμ and Sγ2 in the construct is based on the mechanism of the deletional recombination that excises and deletes the intervening DNA sequences between the Sμ and Sγ2. This excised sequence including the IRES-GFP expression unit forms an extrachromosomal circular DNA that is now under the transcriptional control of the pRSV-LTR (FIG. 1A). The RNA splice donor and acceptor sites permit uniform expression of the GFP from the excised circular DNA (FIG. 1A). Since the GFP gene is expressed only after the switch recombination (recombination or inversion, FIG. 1A) between the Sμ and Sγ2, switch recombination can be monitored in the cultured living cells in “real-time” by fluorescence microscopy. Furthermore, the frequency of switch recombination can be quantitatively measured by flow cytometry.
(§2) To test the potential roles of DNA sequences that may control or regulate the processes involved in switch recombination, the DNA fragments of interest were engineered into the basic switch construct (XF-1) to generate a series of modified switch constructs as diagrammed in the FIG. 1B. All the modified constructs were transfected into Ramos 2G6 cells as stable constructs to establish the switch cell lines. The integrity and copy number of the constructs were determined by Southern Blot analysis and PCR. Only subclones that contain a single copy of the construct were used. To distinguish the substrate switch recombination described here from switch recombination occurring at the intrinsic IgH loci (e.g., CSR), the former is abbreviated as SSR.
(§3) The human B lymphoma cell line Ramos 2G6 (ATCC, Rockville pike, Md.) and its subclones, L cells stably transfected with human CD40L (CD154) provided by D. Rawlings, UCLA), and CHO cells stably transfected with murinc CD40L (Immunex Inc, Seattle, Wash.) were maintained and cultured in complete PRMI 1640 (Zhang et al, 1994, supra). One million cells in 0.2 ml were transfected with 10 μg plasmid DNA by electroporation (200V, 0.975 μF). Genicitin (G418) was added to cultures two days later for clonal selection and the levels increased over four week to concentrations that were previously determined by dosage titration for the different cell lines.
(§4) The expression of GFP in cell lines stably transfected with switch vectors following various stimulated culture conditions was measured by either single- or dual-color flow cytometry (FACS Core laboratory, UCLA). The data were analyzed with FCS express software (De Novo software Inc, Thornhill, Ontario, Canada).
(In flow cytometry, cells or beads pass a laser one at a time.)

Experiment [2] concerns Ramos 2G6/XF-5a.1 cells. The experiment can be described thus: Substrate switch recombination (SSR), GFP positive cells by FACS, construct XF-5a. To be noted: for effect on SSR: XF-5a / XF-5a.1 cells, antibodies 1 μg/ml, cytokines 5 ng/ml alone or with CD40 mAb. In kind it is cell-based, human.
From the text: pXF-5a: A PCR amplified 356 bp fragment containing Iε exon and its 5′ promoter region (pIε) was inserted into Xho I and Xba I sites in pXF-1.
as §1, §2, §3, §4

For experiment [3], the system named is plasmid p77D3.11 (human Sμ and Sε). The experiment can be described thus: In vitro (cell-free) switch recombination assay, white vs blue colonies. In kind it is biochemical. Conditions: added to the recombination reaction; EDTA 10 mM.
Experimental: Nuclear cell extracts from primary human B cells and cell lines were prepared by the Nonidet P-40 (NP-40) lysis method (Dyer and Herzog, BioTechniques 19:192-195 (1995)) with important modifications. Briefly, 10^8 (10^7 for cell lines) purified fresh human tonsillar B lymphocytes (Zhang et al., 1994, supra) were harvested following culture for 3 days with or without 0.1 μg/ml of anti-CD40 monoclonal antibody G28.5 (Zhang et al., 1994, supra) and were lysed with 1 ml of sucrose buffer (0.32 M sucrose, 3 mM CaCl2, 2 mM magnesium acetate, 0.1 mM EDTA, 10 mM Tris-HCl, pH 8.0, 1 mM DTT, 0.5 mM PMSF) containing 0.5% (vol/vol) NL-40 (BRL, Gaithersburg, Mich.). The cells were lysed immediately and the intact nuclei were pelleted by centrifugation at 2400 rpm/5 min at 4° C. The nuclei were washed twice (10^8 B cells/ml) with ice-cold sucrose buffer lacking NP-40. The pelleted nuclei were suspended in 50 μl/10^8 B cells with low-salt buffer (20 mM Hepes, pH 7,6, 25% glycerol, 1.5 mM MgCl2, 20 mM KCl, 0.2 mM EDTA, 0.5 mM DTT, 0.5 mM PMSF) followed by slowly adding 1 vol of high-salt buffer (20 mM Hepes, pH 7.6, 25% glycerol, 1.5 mM MgCl2, 800 mL KCl, 0.2 mM EDTA, 0.5 mM DTT, 0.5 mM PMSF) at 4° C. for 30 min with agitation for nuclear protein extraction. […] The concentration of the nuclear protein was determined by Bradford assay. […]
The target in experiment [4] is CD40 on human B lymphoma cell line Ramos 2G6 (stably transfected with switch constructs XF-1 / XF-5a) (human) (UniProt P25942). The experiment can be described thus: cell-based or functional assay.
Experiment [5] has as its system Iε-Cε1′ transcripts in Ramos 2G6/XF-5a.1 cells. The experiment in a line: RT-PCR of processed Iε-Cε1′ transcripts from the construct. To be noted: 48 hours, IL-4 1 ng/ml, CD40 mAb 1 μg/ml. In kind it is cell-based, human. How it is done: The cells were cultured in the presence of IL-4 (1 ng/ml) and CD40 mAb (1 μg/ml) for 48 hours following by RNA preparation and RT-PCR. Total RNA (2 μg) was used for reverse-transcription and cDNA derived from 0.2 μg of RNA was subject to PCR amplification using the primers diagrammed in the FIG. 7B. The ratio of SSR from the cultures (assayed at day 5) is shown in the bottom. […] Diagrams of the formation of the “germ line” transcripts Iε-Cε1′ from the transgenes and the Iε-Cε2 from the endogenous IgH ε locus are shown in the FIG. 7B. The arrows represent the positions of the primers used for PCR.
PCR and […] (RT-PCR) were performed as described previously (Zhang et al, 1994, supra; Zhang and Cheah, 2000, supra). For amplification of the Sμ-Sγ2 products, genomic DNA from the stably transfected Ramos 2G6 cells was amplified with PCR Kit for GC-rich DNA (Clonetech, Palo Alto, Calif.). […]
The role of transcriptional activity vs. SSR was further investigated using Ramos 2G6/XF-5a.1. As the XF-5a construct contains the Iε exon and a Cε1 exon (referred to as Cε1′) that is able to form processed transcripts through RNA splicing, transcriptional activity of the construct can be semi-quantitatively determined by measuring the Iε-Cε1′ transcripts by RT-PCR (FIG. 7). […]

For experiment [6], the system named is Ramos 2G6 cells stably transfected with XF-2b. The experiment can be described thus: Substrate switch recombination (SSR), construct XF-2b. In kind it is cell-based, human. Conditions: XF-2b cells.
From the text: pXF-2b: The CMV promoter in pXF-2a was deleted by removal of the Ase I and Xho I fragment.
as §2
The human B lymphoma cell line Ramos 2G6 (ATCC, Rockville pike, Md.) and its subclones, L cells stably transfected with human CD40L (CD154) provided by D. Rawlings, UCLA), and CHO cells stably transfected with murinc CD40L (Immunex Inc, Seattle, Wash.) were maintained and cultured in complete PRMI 1640 (Zhang et al, 1994, supra). […] Genicitin (G418) was added to cultures two days later for clonal selection and the levels increased over four week to concentrations that were previously determined by dosage titration for the different cell lines. […]

Sequence of CD40 on human B lymphoma cell line Ramos 2G6 (stably transfected with switch constructs XF-1 / XF-5a) (human) (P25942 21-277): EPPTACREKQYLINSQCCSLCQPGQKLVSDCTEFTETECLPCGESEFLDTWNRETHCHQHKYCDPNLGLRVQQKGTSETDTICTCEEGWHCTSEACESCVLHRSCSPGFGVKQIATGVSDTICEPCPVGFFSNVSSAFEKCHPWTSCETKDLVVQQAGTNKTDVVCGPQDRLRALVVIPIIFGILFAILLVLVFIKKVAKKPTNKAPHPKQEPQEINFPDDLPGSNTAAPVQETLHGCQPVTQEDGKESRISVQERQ

As to IL-6: cytokine, in experiment [1], the “effect on SSR frequency” value is “did not increase”. Besides, the “effect on SSR” value in experiment [2] is on record as “did not increase”.
Consider `O=C(O)CN(CCN(CC(=O)O)CC(=O)O)CC(=O)O` [EDTA], for which the “effect on recombination activity” value in experiment [3] was “almost completely blocked the activity”.
For IL-5: cytokine, the “effect on SSR frequency” value in experiment [1] was “did not increase”. The “effect on SSR” value in experiment [2] was “did not increase”.
On to TGF-β, for which the “effect on SSR frequency” value in experiment [1] is “did not increase”. In addition, in experiment [2], the “effect on SSR” value is “did not increase”.
On to Anti-CD40 mAb G28.5 (antibody), for which, in experiment [4], the GFP expression level (percent of cells), Ramos 2G6/XF-5a.1, in the presence of IL-4 is greater than 50%; the SSR frequency (percent GFP positive cells), Ramos 2G6/XF-5a.1, without IL-4 amounted to 3.2%; the SSR rate (percent GFP positive cells), Ramos 2G6 with construct XF-1 worked out at 1.9%.

B1: IL-4: cytokine purchased from R & D system (protein, UniProt P05112 25-153, looked up)
Interleukin-4: HKCDITLQEIIKTLNSLTEQKTLCTELTVTDIFAASKNTTEKETFCRAATVLRQFYSHHEKDTRCLGATAQQFHRHKQLIRFLKRLDRNLWGLAGLNSCPVKEANQSTLENFLERLKTIMREKYSKCSS
As for B1, in experiment [1], the “effect on SSR frequency” value is reported as “marginal effects”. In addition, the “effect on SSR” value in experiment [2] is on record as “limited effects”. In addition, in experiment [2] (XF-5a cells, in the presence of CD40 mAb (1 μg/ml), plateau at 3 ng/ml IL-4), the “GFP expression, plateau of IL-4 dose-response” value was “around 50%”. In experiment [5], the “change of level of processed Iε-Cε1′ transcripts over pCMV-driven level” value is reported as “minimally increased”. Besides, in experiment [6], the “SSR” value was “efficient SSR did not result”.

B2: IL-10: cytokine (protein, UniProt P22301 19-178, looked up)
Interleukin-10: SPGQGTQSENSCTHFPGNLPNMLRDLRDAFSRVKTFFQMKDQLDNLLLKESLLEDFKGYLGCQALSEMIQFYLEEVMPQAENQDPDIKAHVNSLGENLKTLRLRLRRCHRFLPCENKSKAVEQVKNAFNKLQEKGIYKAMSEFDIFINYIEAYMTMKIRN
As for B2, the “effect on SSR frequency” value in experiment [1] is “did not increase”. Further, in experiment [2], the “effect on SSR” value is “did not increase”.

B3: IFN-γ: cytokine (protein, UniProt P01579 24-161, looked up)
Interferon gamma: QDPYVKEAENLKKYFNAGHSDVADNGTLFLGILKNWKEESDRKIMQSQIVSFYFKLFKNFKDDQSIQKSVETIKEDMNVKFFNSNKKKRDDFEKLTNYSVTDLNVQRKAIHELIQVMAELSPAAKTGKRKRSQMLFRG
For B3, in experiment [1], the “effect on SSR frequency” value is “did not increase”. For the same molecule, the “effect on SSR” value in experiment [2] is “did not increase”.
